Test [1] concerns the target T1, CRF1R receptor (UniProt P34998 24-415, limits assumed).
T1 sequence (looked up): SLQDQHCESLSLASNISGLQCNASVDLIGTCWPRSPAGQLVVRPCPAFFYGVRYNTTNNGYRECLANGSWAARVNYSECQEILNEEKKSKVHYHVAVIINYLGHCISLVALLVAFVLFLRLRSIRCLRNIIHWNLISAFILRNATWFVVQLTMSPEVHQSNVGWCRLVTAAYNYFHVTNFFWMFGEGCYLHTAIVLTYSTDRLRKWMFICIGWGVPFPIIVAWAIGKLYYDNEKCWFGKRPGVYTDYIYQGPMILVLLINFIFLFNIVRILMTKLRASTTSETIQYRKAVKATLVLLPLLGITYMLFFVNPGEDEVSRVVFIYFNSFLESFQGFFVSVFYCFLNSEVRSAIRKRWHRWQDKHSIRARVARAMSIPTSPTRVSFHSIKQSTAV
The test can be described thus: cell-based or functional assay.

In test [2] the target is human corticotropin-releasing factor 2a (CRF2a receptor) (human), Q13324. The test can be described thus: cell-based or functional assay.
human corticotropin-releasing factor 2a (CRF2a receptor) (human), Q13324, sequence (Q13324 20-411): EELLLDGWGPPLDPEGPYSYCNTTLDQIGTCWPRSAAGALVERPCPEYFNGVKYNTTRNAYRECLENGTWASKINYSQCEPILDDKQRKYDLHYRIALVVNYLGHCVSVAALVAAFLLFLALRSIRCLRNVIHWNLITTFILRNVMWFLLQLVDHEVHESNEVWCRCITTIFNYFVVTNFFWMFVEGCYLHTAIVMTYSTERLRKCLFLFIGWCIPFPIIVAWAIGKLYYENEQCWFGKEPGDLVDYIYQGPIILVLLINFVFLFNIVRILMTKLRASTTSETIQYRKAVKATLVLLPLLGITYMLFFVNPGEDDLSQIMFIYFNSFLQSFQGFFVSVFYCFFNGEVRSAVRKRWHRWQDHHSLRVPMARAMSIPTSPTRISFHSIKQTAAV

This note sets out measurements from US20260001928A1 (CORTERIA PHARMACEUTICALS, priority 2022, published 2026).

*1 amine or outer side, *2 acyl side, *3 side chain or, on linkers, in order; H or OH if unused. Primed or numbered codes have the meaning given here. Where no end group is shown, it is not given here. Side-chain parts run from the residue outwards. [ ]: non-standard residue; d: D form. The star is where a group is joined. Thp′ = 4-amino-tetrahydro-2H-pyran-4-yl-acetic acid, O=C(CC1(N[*:1])CCOCC1)[*:2]; ThP = 4-amino-tetrahydro-2H-pyran-4-yl-acetic acid, O=C(CC1(N[*:1])CCOCC1)[*:2]; C18 diacid = O=C(O)CCCCCCCCCCCCCCCCC(=O)*; C16 diacid = O=C(O)CCCCCCCCCCCCCCC(=O)*; γGlu = O=C(O)[C@H](CCC(=O)[*:2])N[*:1]; NMeI = CC[C@H](C)[C@H](NC)C(=O)O; Ac6c = NC1(C(=O)O)CCCCC1; Aib = CC(C)(N)C(=O)O

B1: SEQ ID NO 24 (peptide)
peptide: [NMeI]VLSLD[dV]PIKLK([γGlu-C18 diacid])QILLKQERQKKQREQAEKNAQILEQV-NH2
modifications: N-terminus assumed
SMILES: CC[C@H](C)[C@H](NC)C(=O)N[C@H](C(=O)N[C@@H](CC(C)C)C(=O)N[C@@H](CO)C(=O)N[C@@H](CC(C)C)C(=O)N[C@@H](CC(=O)O)C(=O)N[C@@H](C(=O)N1CCC[C@H]1C(=O)N[C@H](C(=O)N[C@@H](CCCCN)C(=O)N[C@@H](CC(C)C)C(=O)N[C@@H](CCCCNC(=O)CC[C@H](NC(=O)CCCCCCCCCCCCCCCCC(=O)O)C(=O)O)C(=O)N[C@@H](CCC(N)=O)C(=O)N[C@H](C(=O)N[C@@H](CC(C)C)C(=O)N[C@@H](CC(C)C)C(=O)N[C@@H](CCCCN)C(=O)N[C@@H](CCC(N)=O)C(=O)N[C@@H](CCC(=O)O)C(=O)N[C@@H](CCCNC(=N)N)C(=O)N[C@@H](CCC(N)=O)C(=O)N[C@@H](CCCCN)C(=O)N[C@@H](CCCCN)C(=O)N[C@@H](CCC(N)=O)C(=O)N[C@@H](CCCNC(=N)N)C(=O)N[C@@H](CCC(=O)O)C(=O)N[C@@H](CCC(N)=O)C(=O)N[C@@H](C)C(=O)N[C@@H](CCC(=O)O)C(=O)N[C@@H](CCCCN)C(=O)N[C@@H](CC(N)=O)C(=O)N[C@@H](C)C(=O)N[C@@H](CCC(N)=O)C(=O)N[C@H](C(=O)N[C@@H](CC(C)C)C(=O)N[C@@H](CCC(=O)O)C(=O)N[C@@H](CCC(N)=O)C(=O)N[C@H](C(N)=O)C(C)C)[C@@H](C)CC)[C@@H](C)CC)[C@@H](C)CC)C(C)C)C(C)C
B1: in test [1], the “Emax (% I)” value turned out to be 37%. In test [2], this molecule registered an EC50 [nM] (cAMP) of 0.04 nM.

B2: SEQ ID NO 133 (peptide)
peptide: Ac-IVLSLD[dV]PIKLK([γGlu-C18 diacid])KILLEQEKQKKQREQAETN[ThP]QILAQV-NH2
SMILES: CC[C@H](C)[C@H](NC(C)=O)C(=O)N[C@H](C(=O)N[C@@H](CC(C)C)C(=O)N[C@@H](CO)C(=O)N[C@@H](CC(C)C)C(=O)N[C@@H](CC(=O)O)C(=O)N[C@@H](C(=O)N1CCC[C@H]1C(=O)N[C@H](C(=O)N[C@@H](CCCCN)C(=O)N[C@@H](CC(C)C)C(=O)N[C@@H](CCCCNC(=O)CC[C@H](NC(=O)CCCCCCCCCCCCCCCCC(=O)O)C(=O)O)C(=O)N[C@@H](CCCCN)C(=O)N[C@H](C(=O)N[C@@H](CC(C)C)C(=O)N[C@@H](CC(C)C)C(=O)N[C@@H](CCC(=O)O)C(=O)N[C@@H](CCC(N)=O)C(=O)N[C@@H](CCC(=O)O)C(=O)N[C@@H](CCCCN)C(=O)N[C@@H](CCC(N)=O)C(=O)N[C@@H](CCCCN)C(=O)N[C@@H](CCCCN)C(=O)N[C@@H](CCC(N)=O)C(=O)N[C@@H](CCCNC(=N)N)C(=O)N[C@@H](CCC(=O)O)C(=O)N[C@@H](CCC(N)=O)C(=O)N[C@@H](C)C(=O)N[C@@H](CCC(=O)O)C(=O)N[C@H](C(=O)N[C@@H](CC(N)=O)C(=O)NC1(CC(=O)N[C@@H](CCC(N)=O)C(=O)N[C@H](C(=O)N[C@@H](CC(C)C)C(=O)N[C@@H](C)C(=O)N[C@@H](CCC(N)=O)C(=O)N[C@H](C(N)=O)C(C)C)[C@@H](C)CC)CCOCC1)[C@@H](C)O)[C@@H](C)CC)[C@@H](C)CC)C(C)C)C(C)C
By EC50 is commonly meant the concentration giving half of the maximal effect. With B2, in test [1], the “EC50” value was more than 250 nM and the “Emax (% I)” value worked out at 11%. This molecule showed an EC50 [nM] (cAMP) in test [2] of 0.16 nM.
As to Ac-IVLSLD[dV]PIKLK([γGlu-C16 diacid])KILLEQEKQKKQREQAETN[Thp′]QILAQV-NH2 [SEQ ID NO 58], in test [1], the “EC50” value is more than 250 nM and the “Emax (% I)” value is 6%. Moreover, the EC50 [nM] (cAMP) in test [2] was 0.41 nM.

B3: SEQ ID NO 142 (peptide)
peptide: [NMeI]VLSLD[dV]PIKLK([γGlu-C18 diacid])KILLEQEKQKKQREQAETNEQILAQV-NH2
modifications: N-terminus assumed
SMILES: CC[C@H](C)[C@H](NC)C(=O)N[C@H](C(=O)N[C@@H](CC(C)C)C(=O)N[C@@H](CO)C(=O)N[C@@H](CC(C)C)C(=O)N[C@@H](CC(=O)O)C(=O)N[C@@H](C(=O)N1CCC[C@H]1C(=O)N[C@H](C(=O)N[C@@H](CCCCN)C(=O)N[C@@H](CC(C)C)C(=O)N[C@@H](CCCCNC(=O)CC[C@H](NC(=O)CCCCCCCCCCCCCCCCC(=O)O)C(=O)O)C(=O)N[C@@H](CCCCN)C(=O)N[C@H](C(=O)N[C@@H](CC(C)C)C(=O)N[C@@H](CC(C)C)C(=O)N[C@@H](CCC(=O)O)C(=O)N[C@@H](CCC(N)=O)C(=O)N[C@@H](CCC(=O)O)C(=O)N[C@@H](CCCCN)C(=O)N[C@@H](CCC(N)=O)C(=O)N[C@@H](CCCCN)C(=O)N[C@@H](CCCCN)C(=O)N[C@@H](CCC(N)=O)C(=O)N[C@@H](CCCNC(=N)N)C(=O)N[C@@H](CCC(=O)O)C(=O)N[C@@H](CCC(N)=O)C(=O)N[C@@H](C)C(=O)N[C@@H](CCC(=O)O)C(=O)N[C@H](C(=O)N[C@@H](CC(N)=O)C(=O)N[C@@H](CCC(=O)O)C(=O)N[C@@H](CCC(N)=O)C(=O)N[C@H](C(=O)N[C@@H](CC(C)C)C(=O)N[C@@H](C)C(=O)N[C@@H](CCC(N)=O)C(=O)N[C@H](C(N)=O)C(C)C)[C@@H](C)CC)[C@@H](C)O)[C@@H](C)CC)[C@@H](C)CC)C(C)C)C(C)C
In the case of B3, the “Emax (% I)” value in test [1] came out at 3%. Further, the EC50 [nM] (cAMP) in test [2] came out at 0.07 nM.

B4: SEQ ID NO 23 (peptide)
peptide: [NMeI]VLSLD[dV]PIKLK([γGlu-C18 diacid])QILLKQERQKKQREQAEKN[Aib]QILEQV-NH2
modifications: N-terminus assumed
SMILES: CC[C@H](C)[C@H](NC)C(=O)N[C@H](C(=O)N[C@@H](CC(C)C)C(=O)N[C@@H](CO)C(=O)N[C@@H](CC(C)C)C(=O)N[C@@H](CC(=O)O)C(=O)N[C@@H](C(=O)N1CCC[C@H]1C(=O)N[C@H](C(=O)N[C@@H](CCCCN)C(=O)N[C@@H](CC(C)C)C(=O)N[C@@H](CCCCNC(=O)CC[C@H](NC(=O)CCCCCCCCCCCCCCCCC(=O)O)C(=O)O)C(=O)N[C@@H](CCC(N)=O)C(=O)N[C@H](C(=O)N[C@@H](CC(C)C)C(=O)N[C@@H](CC(C)C)C(=O)N[C@@H](CCCCN)C(=O)N[C@@H](CCC(N)=O)C(=O)N[C@@H](CCC(=O)O)C(=O)N[C@@H](CCCNC(=N)N)C(=O)N[C@@H](CCC(N)=O)C(=O)N[C@@H](CCCCN)C(=O)N[C@@H](CCCCN)C(=O)N[C@@H](CCC(N)=O)C(=O)N[C@@H](CCCNC(=N)N)C(=O)N[C@@H](CCC(=O)O)C(=O)N[C@@H](CCC(N)=O)C(=O)N[C@@H](C)C(=O)N[C@@H](CCC(=O)O)C(=O)N[C@@H](CCCCN)C(=O)N[C@@H](CC(N)=O)C(=O)NC(C)(C)C(=O)N[C@@H](CCC(N)=O)C(=O)N[C@H](C(=O)N[C@@H](CC(C)C)C(=O)N[C@@H](CCC(=O)O)C(=O)N[C@@H](CCC(N)=O)C(=O)N[C@H](C(N)=O)C(C)C)[C@@H](C)CC)[C@@H](C)CC)[C@@H](C)CC)C(C)C)C(C)C
B4: the “Emax (% I)” value in test [1] amounted to 35%. Also, in test [2], the EC50 [nM] (cAMP) was determined as 0.33 nM.

B5: SEQ ID NO 59 (peptide)
peptide: Ac-IVLSLD[dV]PIKLK([γGlu-C16 diacid])KILLEQEKQKKQREQAETN[Ac6c]QILAQV-NH2
SMILES: CC[C@H](C)[C@H](NC(C)=O)C(=O)N[C@H](C(=O)N[C@@H](CC(C)C)C(=O)N[C@@H](CO)C(=O)N[C@@H](CC(C)C)C(=O)N[C@@H](CC(=O)O)C(=O)N[C@@H](C(=O)N1CCC[C@H]1C(=O)N[C@H](C(=O)N[C@@H](CCCCN)C(=O)N[C@@H](CC(C)C)C(=O)N[C@@H](CCCCNC(=O)CC[C@H](NC(=O)CCCCCCCCCCCCCCC(=O)O)C(=O)O)C(=O)N[C@@H](CCCCN)C(=O)N[C@H](C(=O)N[C@@H](CC(C)C)C(=O)N[C@@H](CC(C)C)C(=O)N[C@@H](CCC(=O)O)C(=O)N[C@@H](CCC(N)=O)C(=O)N[C@@H](CCC(=O)O)C(=O)N[C@@H](CCCCN)C(=O)N[C@@H](CCC(N)=O)C(=O)N[C@@H](CCCCN)C(=O)N[C@@H](CCCCN)C(=O)N[C@@H](CCC(N)=O)C(=O)N[C@@H](CCCNC(=N)N)C(=O)N[C@@H](CCC(=O)O)C(=O)N[C@@H](CCC(N)=O)C(=O)N[C@@H](C)C(=O)N[C@@H](CCC(=O)O)C(=O)N[C@H](C(=O)N[C@@H](CC(N)=O)C(=O)NC1(C(=O)N[C@@H](CCC(N)=O)C(=O)N[C@H](C(=O)N[C@@H](CC(C)C)C(=O)N[C@@H](C)C(=O)N[C@@H](CCC(N)=O)C(=O)N[C@H](C(N)=O)C(C)C)[C@@H](C)CC)CCCCC1)[C@@H](C)O)[C@@H](C)CC)[C@@H](C)CC)C(C)C)C(C)C
On to B5, for which the “Emax (% I)” value in test [1] is 9%. Further, the EC50 [nM] (cAMP) in test [2] came out at 0.81 nM.
